Measured values: patent US20250171562A1

B1: CIgG4E1A1(G4S)1 (Fc fusion)
chain 1: GPPCPPCPAPEFLGGPSVFLFPPKPKDTLMISRTPEVTCVVVDVSQEDPEVQFNWYVDGVEVHNAKTKPREEQFNSTYRVVSVLTVLHQDWLNGKEYKCKVSNKGLPSSIEKTISKAKGQPREPQVYTLPPCQEEMTKNQVSLWCLVKGFYPSDIAVEWESNGQPENNYKTTPPVLDSDGSFFLYSRLTVDKSRWQEGNVFSCSVMHEALHNHYTQKSLSLSLGKGGGGSDVQLQESGGGLVQAGGSLRLSCLASGRTFTTTSGYNMGWFRQAPGKEREFVAGIKWVSGSNRAYAESVKGRFTISRDNAKNTVYLQMNSLKPEDTAVYYCAAATGQSYVPIREYEYVYWGQGTQVTVS
chain 2: GPPCPPCPAPEFLGGPSVFLFPPKPKDTLMISRTPEVTCVVVDVSQEDPEVQFNWYVDGVEVHNAKTKPREEQFNSTYRVVSVLTVLHQDWLNGKEYKCKVSNKGLPSSIEKTISKAKGQPREPQVCTLPPSQEEMTKNQVSLSCAVKGFYPSDIAVEWESNGQPENNYKTTPPVLDSDGSFFLVSRLTVDKSRWQEGNVFSCSVMHEALHNHYTQKSLSLSLGKGGGGSEVQLLESGGGLVQPGGSLRLSCAASGFTFGNYDMAWVRQAPGKRPEWVSSIDTGGDITHYADSVKGRFTISRDNAKNTLYLQMNSLRPEDTAVYWCATDEEYALGPNEFDYYGQGTLVTVSS
B2: NIgG4E1A1(G4S)2 (Fc fusion)
chain 1: DVQLQESGGGLVQAGGSLRLSCLASGRTFTTTSGYNMGWFRQAPGKEREFVAGIKWVSGSNRAYAESVKGRFTISRDNAKNTVYLQMNSLKPEDTAVYYCAAATGQSYVPIREYEYVYWGQGTQVTVSGGGGSGGGGSGPPCPPCPAPEFLGGPSVFLFPPKPKDTLMISRTPEVTCVVVDVSQEDPEVQFNWYVDGVEVHNAKTKPREEQFNSTYRVVSVLTVLHQDWLNGKEYKCKVSNKGLPSSIEKTISKAKGQPREPQVYTLPPCQEEMTKNQVSLWCLVKGFYPSDIAVEWESNGQPENNYKTTPPVLDSDGSFFLYSRLTVDKSRWQEGNVFSCSVMHEALHNHYTQKSLSLSLGK
chain 2: EVQLLESGGGLVQPGGSLRLSCAASGFTFGNYDMAWVRQAPGKRPEWVSSIDTGGDITHYADSVKGRFTISRDNAKNTLYLQMNSLRPEDTAVYWCATDEEYALGPNEFDYYGQGTLVTVSSGGGGSGGGGSGPPCPPCPAPEFLGGPSVFLFPPKPKDTLMISRTPEVTCVVVDVSQEDPEVQFNWYVDGVEVHNAKTKPREEQFNSTYRVVSVLTVLHQDWLNGKEYKCKVSNKGLPSSIEKTISKAKGQPREPQVCTLPPSQEEMTKNQVSLSCAVKGFYPSDIAVEWESNGQPENNYKTTPPVLDSDGSFFLVSRLTVDKSRWQEGNVFSCSVMHEALHNHYTQKSLSLSLGK
B3: CIgG4E1A1(G4S)3 (Fc fusion)
chain 1: GPPCPPCPAPEFLGGPSVFLFPPKPKDTLMISRTPEVTCVVVDVSQEDPEVQFNWYVDGVEVHNAKTKPREEQFNSTYRVVSVLTVLHQDWLNGKEYKCKVSNKGLPSSIEKTISKAKGQPREPQVYTLPPCQEEMTKNQVSLWCLVKGFYPSDIAVEWESNGQPENNYKTTPPVLDSDGSFFLYSRLTVDKSRWQEGNVFSCSVMHEALHNHYTQKSLSLSLGKGGGGSGGGGSGGGGSDVQLQESGGGLVQAGGSLRLSCLASGRTFTTTSGYNMGWFRQAPGKEREFVAGIKWVSGSNRAYAESVKGRFTISRDNAKNTVYLQMNSLKPEDTAVYYCAAATGQSYVPIREYEYVYWGQGTQVTVS
chain 2: GPPCPPCPAPEFLGGPSVFLFPPKPKDTLMISRTPEVTCVVVDVSQEDPEVQFNWYVDGVEVHNAKTKPREEQFNSTYRVVSVLTVLHQDWLNGKEYKCKVSNKGLPSSIEKTISKAKGQPREPQVCTLPPSQEEMTKNQVSLSCAVKGFYPSDIAVEWESNGQPENNYKTTPPVLDSDGSFFLVSRLTVDKSRWQEGNVFSCSVMHEALHNHYTQKSLSLSLGKGGGGSGGGGSGGGGSEVQLLESGGGLVQPGGSLRLSCAASGFTFGNYDMAWVRQAPGKRPEWVSSIDTGGDITHYADSVKGRFTISRDNAKNTLYLQMNSLRPEDTAVYWCATDEEYALGPNEFDYYGQGTLVTVSS
B4: NIgG4E1A1(G4S)1 (Fc fusion)
chain 1: DVQLQESGGGLVQAGGSLRLSCLASGRTFTTTSGYNMGWFRQAPGKEREFVAGIKWVSGSNRAYAESVKGRFTISRDNAKNTVYLQMNSLKPEDTAVYYCAAATGQSYVPIREYEYVYWGQGTQVTVSGGGGSGPPCPPCPAPEFLGGPSVFLFPPKPKDTLMISRTPEVTCVVVDVSQEDPEVQFNWYVDGVEVHNAKTKPREEQFNSTYRVVSVLTVLHQDWLNGKEYKCKVSNKGLPSSIEKTISKAKGQPREPQVYTLPPCQEEMTKNQVSLWCLVKGFYPSDIAVEWESNGQPENNYKTTPPVLDSDGSFFLYSRLTVDKSRWQEGNVFSCSVMHEALHNHYTQKSLSLSLGK
chain 2: EVQLLESGGGLVQPGGSLRLSCAASGFTFGNYDMAWVRQAPGKRPEWVSSIDTGGDITHYADSVKGRFTISRDNAKNTLYLQMNSLRPEDTAVYWCATDEEYALGPNEFDYYGQGTLVTVSSGGGGSGPPCPPCPAPEFLGGPSVFLFPPKPKDTLMISRTPEVTCVVVDVSQEDPEVQFNWYVDGVEVHNAKTKPREEQFNSTYRVVSVLTVLHQDWLNGKEYKCKVSNKGLPSSIEKTISKAKGQPREPQVCTLPPSQEEMTKNQVSLSCAVKGFYPSDIAVEWESNGQPENNYKTTPPVLDSDGSFFLVSRLTVDKSRWQEGNVFSCSVMHEALHNHYTQKSLSLSLGK
B5: NIgG4E1A1(RS) (Fc fusion)
chain 1: DVQLQESGGGLVQAGGSLRLSCLASGRTFTTTSGYNMGWFRQAPGKEREFVAGIKWVSGSNRAYAESVKGRFTISRDNAKNTVYLQMNSLKPEDTAVYYCAAATGQSYVPIREYEYVYWGQGTQVTVSRSGPPCPPCPAPEFLGGPSVFLFPPKPKDTLMISRTPEVTCVVVDVSQEDPEVQFNWYVDGVEVHNAKTKPREEQFNSTYRVVSVLTVLHQDWLNGKEYKCKVSNKGLPSSIEKTISKAKGQPREPQVYTLPPCQEEMTKNQVSLWCLVKGFYPSDIAVEWESNGQPENNYKTTPPVLDSDGSFFLYSRLTVDKSRWQEGNVFSCSVMHEALHNHYTQKSLSLSLGK
chain 2: EVQLLESGGGLVQPGGSLRLSCAASGFTFGNYDMAWVRQAPGKRPEWVSSIDTGGDITHYADSVKGRFTISRDNAKNTLYLQMNSLRPEDTAVYWCATDEEYALGPNEFDYYGQGTLVTVSSRSGPPCPPCPAPEFLGGPSVFLFPPKPKDTLMISRTPEVTCVVVDVSQEDPEVQFNWYVDGVEVHNAKTKPREEQFNSTYRVVSVLTVLHQDWLNGKEYKCKVSNKGLPSSIEKTISKAKGQPREPQVCTLPPSQEEMTKNQVSLSCAVKGFYPSDIAVEWESNGQPENNYKTTPPVLDSDGSFFLVSRLTVDKSRWQEGNVFSCSVMHEALHNHYTQKSLSLSLGK
B6: CIgG4E1A1(RS) (Fc fusion)
chain 1: GPPCPPCPAPEFLGGPSVFLFPPKPKDTLMISRTPEVTCVVVDVSQEDPEVQFNWYVDGVEVHNAKTKPREEQFNSTYRVVSVLTVLHQDWLNGKEYKCKVSNKGLPSSIEKTISKAKGQPREPQVYTLPPCQEEMTKNQVSLWCLVKGFYPSDIAVEWESNGQPENNYKTTPPVLDSDGSFFLYSRLTVDKSRWQEGNVFSCSVMHEALHNHYTQKSLSLSLGKRSDVQLQESGGGLVQAGGSLRLSCLASGRTFTTTSGYNMGWFRQAPGKEREFVAGIKWVSGSNRAYAESVKGRFTISRDNAKNTVYLQMNSLKPEDTAVYYCAAATGQSYVPIREYEYVYWGQGTQVTVS
chain 2: GPPCPPCPAPEFLGGPSVFLFPPKPKDTLMISRTPEVTCVVVDVSQEDPEVQFNWYVDGVEVHNAKTKPREEQFNSTYRVVSVLTVLHQDWLNGKEYKCKVSNKGLPSSIEKTISKAKGQPREPQVCTLPPSQEEMTKNQVSLSCAVKGFYPSDIAVEWESNGQPENNYKTTPPVLDSDGSFFLVSRLTVDKSRWQEGNVFSCSVMHEALHNHYTQKSLSLSLGKRSEVQLLESGGGLVQPGGSLRLSCAASGFTFGNYDMAWVRQAPGKRPEWVSSIDTGGDITHYADSVKGRFTISRDNAKNTLYLQMNSLRPEDTAVYWCATDEEYALGPNEFDYYGQGTLVTVSS
B7: NIgG4E1A1(G4S)3 (Fc fusion)
chain 1: DVQLQESGGGLVQAGGSLRLSCLASGRTFTTTSGYNMGWFRQAPGKEREFVAGIKWVSGSNRAYAESVKGRFTISRDNAKNTVYLQMNSLKPEDTAVYYCAAATGQSYVPIREYEYVYWGQGTQVTVSGGGGSGGGGSGGGGSGPPCPPCPAPEFLGGPSVFLFPPKPKDTLMISRTPEVTCVVVDVSQEDPEVQFNWYVDGVEVHNAKTKPREEQFNSTYRVVSVLTVLHQDWLNGKEYKCKVSNKGLPSSIEKTISKAKGQPREPQVYTLPPCQEEMTKNQVSLWCLVKGFYPSDIAVEWESNGQPENNYKTTPPVLDSDGSFFLYSRLTVDKSRWQEGNVFSCSVMHEALHNHYTQKSLSLSLGK
chain 2: EVQLLESGGGLVQPGGSLRLSCAASGFTFGNYDMAWVRQAPGKRPEWVSSIDTGGDITHYADSVKGRFTISRDNAKNTLYLQMNSLRPEDTAVYWCATDEEYALGPNEFDYYGQGTLVTVSSGGGGSGGGGSGGGGSGPPCPPCPAPEFLGGPSVFLFPPKPKDTLMISRTPEVTCVVVDVSQEDPEVQFNWYVDGVEVHNAKTKPREEQFNSTYRVVSVLTVLHQDWLNGKEYKCKVSNKGLPSSIEKTISKAKGQPREPQVCTLPPSQEEMTKNQVSLSCAVKGFYPSDIAVEWESNGQPENNYKTTPPVLDSDGSFFLVSRLTVDKSRWQEGNVFSCSVMHEALHNHYTQKSLSLSLGK
B8: CIgG4E1A1(G4S)2 (Fc fusion)
chain 1: GPPCPPCPAPEFLGGPSVFLFPPKPKDTLMISRTPEVTCVVVDVSQEDPEVQFNWYVDGVEVHNAKTKPREEQFNSTYRVVSVLTVLHQDWLNGKEYKCKVSNKGLPSSIEKTISKAKGQPREPQVYTLPPCQEEMTKNQVSLWCLVKGFYPSDIAVEWESNGQPENNYKTTPPVLDSDGSFFLYSRLTVDKSRWQEGNVFSCSVMHEALHNHYTQKSLSLSLGKGGGGSGGGGSDVQLQESGGGLVQAGGSLRLSCLASGRTFTTTSGYNMGWFRQAPGKEREFVAGIKWVSGSNRAYAESVKGRFTISRDNAKNTVYLQMNSLKPEDTAVYYCAAATGQSYVPIREYEYVYWGQGTQVTVS
chain 2: GPPCPPCPAPEFLGGPSVFLFPPKPKDTLMISRTPEVTCVVVDVSQEDPEVQFNWYVDGVEVHNAKTKPREEQFNSTYRVVSVLTVLHQDWLNGKEYKCKVSNKGLPSSIEKTISKAKGQPREPQVCTLPPSQEEMTKNQVSLSCAVKGFYPSDIAVEWESNGQPENNYKTTPPVLDSDGSFFLVSRLTVDKSRWQEGNVFSCSVMHEALHNHYTQKSLSLSLGKGGGGSGGGGSEVQLLESGGGLVQPGGSLRLSCAASGFTFGNYDMAWVRQAPGKRPEWVSSIDTGGDITHYADSVKGRFTISRDNAKNTLYLQMNSLRPEDTAVYWCATDEEYALGPNEFDYYGQGTLVTVSS

molecular target: mixture of three Der p 2 specific recombinant human IgE clones H10, H12, P4E (human) (UniProt P01854); assay: RBL-SX38 IgE displacement, FACS
Sequence (P01854 other isoform, or with tags, fused parts or gaps): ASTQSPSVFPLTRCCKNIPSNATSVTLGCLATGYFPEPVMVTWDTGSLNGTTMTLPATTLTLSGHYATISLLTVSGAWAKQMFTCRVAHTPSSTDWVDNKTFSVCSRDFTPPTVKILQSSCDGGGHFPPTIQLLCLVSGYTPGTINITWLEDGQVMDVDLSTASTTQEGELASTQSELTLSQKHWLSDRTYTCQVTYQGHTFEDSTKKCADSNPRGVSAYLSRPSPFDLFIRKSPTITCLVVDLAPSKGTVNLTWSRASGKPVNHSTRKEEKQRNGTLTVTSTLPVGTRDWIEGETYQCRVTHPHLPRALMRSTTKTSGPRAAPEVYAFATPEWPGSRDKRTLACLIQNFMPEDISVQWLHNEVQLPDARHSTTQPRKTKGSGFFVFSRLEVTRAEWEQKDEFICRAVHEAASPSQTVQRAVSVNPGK

EC50 [nM] | Max effect/effect 1 µM [%] | Binder
96.1 | 95 | B1
4.8 | 94 | B2
24.1 | 99 | B3
7.1 | 96 | B4
8.7 | 97 | B5
– | 9 | B6
3.7 | 98 | B7
35.6 | 99 | B8
